In article PMC5413942, “Gating of TonB-dependent transporters by substrate-specific forced remodelling” (Nature Communications, 2017):
One block for each binder: values may come before it. Where no end group is shown, it is not given here.

B2: TonB_(ΔTMD) (soluble TonB, residues 33–239, deletion of the N-terminal transmembrane helix) (domain or fragment)
chain: not shown
notes: Gly-Cys between the (His)6 tag and TonB, translated from the printed forward primer (GGCTGT); the cysteine is for AFM surface attachment; TonB of E. coli, cloned from the genome of E. coli BL21 (DE3), residues 33-239 (without the transmembrane domain, residues 1-32); the forward primer begins at HQVIELP; In the AFM experiments the engineered cysteine was coupled to NHS-PEG24-maleimide on the …

Assays:
Conditions in all cases: both partners purified
[1] = biological target: B2; assay: MST; Alexa Fluor 488-labelled TB_(BtuB) peptide at constant concentration (500 nM mixed 1:1), TonB_(ΔTMD) titrated 7 nM-244 μM in 16 dilutions; 25 mM Tris-HCl pH 7.5, 128 mM NaCl, 5 min at room temperature; fit by the law of mass action
[2] = biological target: T1, BtuB XL_(loop) (BtuB V29C/V45C) (E. coli, UniProt P06129 21-614, V29C | V45C, disulfide bridge between C29 and C45 (reduced on addition of 2 mM DTT)); assay: single-molecule force spectroscopy (AFM); TonB construct on the AFM probe through NHS-PEG24-maleimide, TBDT (BtuB, its variants or FhuA) in E. coli polar lipid extract liposomes with its ligand adsorbed on mica; dwell 1 s, retraction 1,000 nm s^-1 unless stated otherwise; 25 mM Tris-HCl pH 8.0, 128 mM NaCl, 25 °C; 2 mM DTT added where stated
T1 sequence (looked up): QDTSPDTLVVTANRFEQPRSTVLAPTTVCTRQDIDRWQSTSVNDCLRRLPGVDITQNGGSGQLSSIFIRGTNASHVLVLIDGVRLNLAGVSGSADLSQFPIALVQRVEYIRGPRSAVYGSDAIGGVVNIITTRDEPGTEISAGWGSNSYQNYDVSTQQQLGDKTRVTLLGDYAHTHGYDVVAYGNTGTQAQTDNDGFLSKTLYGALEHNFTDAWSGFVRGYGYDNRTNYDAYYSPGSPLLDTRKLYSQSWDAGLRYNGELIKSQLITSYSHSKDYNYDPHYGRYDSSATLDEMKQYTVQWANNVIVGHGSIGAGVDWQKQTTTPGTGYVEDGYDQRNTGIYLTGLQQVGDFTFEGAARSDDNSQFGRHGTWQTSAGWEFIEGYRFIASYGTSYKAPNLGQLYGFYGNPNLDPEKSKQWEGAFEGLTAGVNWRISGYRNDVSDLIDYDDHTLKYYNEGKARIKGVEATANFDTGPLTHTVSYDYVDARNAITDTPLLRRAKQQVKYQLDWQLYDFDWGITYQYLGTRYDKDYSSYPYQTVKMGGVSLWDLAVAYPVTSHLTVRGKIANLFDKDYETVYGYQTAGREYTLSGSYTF

[3] = biological target: T2, BtuB3A (BtuB I80A/L85A/L96A) (E. coli, UniProt P06129 21-614, I80A | L85A | L96A); assay: as above
T2 sequence (looked up): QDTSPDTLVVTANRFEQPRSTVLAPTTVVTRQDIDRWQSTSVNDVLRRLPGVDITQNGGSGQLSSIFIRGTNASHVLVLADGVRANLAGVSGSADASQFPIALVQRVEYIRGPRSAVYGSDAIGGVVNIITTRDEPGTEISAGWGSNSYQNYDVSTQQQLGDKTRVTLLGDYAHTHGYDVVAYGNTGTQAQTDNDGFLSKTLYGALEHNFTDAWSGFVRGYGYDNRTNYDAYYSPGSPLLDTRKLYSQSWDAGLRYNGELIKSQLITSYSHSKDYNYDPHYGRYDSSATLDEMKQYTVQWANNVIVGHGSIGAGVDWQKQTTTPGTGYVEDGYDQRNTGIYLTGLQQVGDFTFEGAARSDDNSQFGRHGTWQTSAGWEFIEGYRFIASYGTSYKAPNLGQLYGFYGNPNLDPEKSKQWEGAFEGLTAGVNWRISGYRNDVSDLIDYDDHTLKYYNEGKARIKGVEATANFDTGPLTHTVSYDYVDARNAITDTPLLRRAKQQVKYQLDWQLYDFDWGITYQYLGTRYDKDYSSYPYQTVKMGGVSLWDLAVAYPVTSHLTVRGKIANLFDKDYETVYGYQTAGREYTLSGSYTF

[4] = biological target: T3, wild-type BtuB (E. coli, UniProt P06129 21-614); assay: as above
T3 construct: Cyanocobalamin was present at a 100-fold molar excess during reconstitution; also called vitamin B12 TBDT receptor of E. coli
T3 sequence (looked up): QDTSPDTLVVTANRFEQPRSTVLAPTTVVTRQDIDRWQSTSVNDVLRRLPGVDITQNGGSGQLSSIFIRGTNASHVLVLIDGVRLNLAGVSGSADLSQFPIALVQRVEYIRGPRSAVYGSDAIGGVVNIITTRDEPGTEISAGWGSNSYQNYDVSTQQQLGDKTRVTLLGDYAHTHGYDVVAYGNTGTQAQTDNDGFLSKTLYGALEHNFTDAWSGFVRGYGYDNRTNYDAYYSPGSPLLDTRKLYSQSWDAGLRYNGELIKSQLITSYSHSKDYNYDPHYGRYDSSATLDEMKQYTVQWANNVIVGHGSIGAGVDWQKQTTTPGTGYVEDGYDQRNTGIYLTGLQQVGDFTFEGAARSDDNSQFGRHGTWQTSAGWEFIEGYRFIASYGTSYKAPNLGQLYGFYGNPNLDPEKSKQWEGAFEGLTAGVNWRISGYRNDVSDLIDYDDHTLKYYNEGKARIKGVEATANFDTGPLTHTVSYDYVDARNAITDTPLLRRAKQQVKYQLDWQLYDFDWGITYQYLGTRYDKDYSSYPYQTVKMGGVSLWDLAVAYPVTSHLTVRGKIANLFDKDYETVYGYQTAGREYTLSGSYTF

Kd [1]: 9.4 ± 0.3 µM
B1: Ton box peptide from BtuB (TB_(BtuB)) labelled with Alexa Fluor 488 C5 maleimide (peptide)
peptide: PDTLVVTANRGSWSC(Alexa Fluor 488 C5 maleimide)
notes: also called TB_(BtuB)-Alexa fluor 488; Ton box_(BtuB) peptide; source: synthetic peptide

Binder: B2
binding result [2]: binds
binding result [3]: binds

binding result [4]: binds
B3: TonBCTD (globular C-terminal domain of TonB without the linker) (domain or fragment)
chain: not shown
notes: Gly-Cys between the (His)6 tag and TonBCTD, translated from the printed forward primer (GGATGT); the cysteine is for AFM surface attachment; C-terminal domain of TonB of E. coli; also called TonB C-terminal domain; source: E. coli BL21 (DE3), pET-23a(+), purified (Ni Sepharose, size exclusion chromatography)
